These results are taken from article PMC11673900 (Journal of Translational Medicine, 2024).

The target of this assay is GST-tagged PARP1, full-length (human, UniProt P09874 1-1014). The assay is described as follows: co-IP.
Chain of GST-tagged PARP1, full-length (P09874 whole entry): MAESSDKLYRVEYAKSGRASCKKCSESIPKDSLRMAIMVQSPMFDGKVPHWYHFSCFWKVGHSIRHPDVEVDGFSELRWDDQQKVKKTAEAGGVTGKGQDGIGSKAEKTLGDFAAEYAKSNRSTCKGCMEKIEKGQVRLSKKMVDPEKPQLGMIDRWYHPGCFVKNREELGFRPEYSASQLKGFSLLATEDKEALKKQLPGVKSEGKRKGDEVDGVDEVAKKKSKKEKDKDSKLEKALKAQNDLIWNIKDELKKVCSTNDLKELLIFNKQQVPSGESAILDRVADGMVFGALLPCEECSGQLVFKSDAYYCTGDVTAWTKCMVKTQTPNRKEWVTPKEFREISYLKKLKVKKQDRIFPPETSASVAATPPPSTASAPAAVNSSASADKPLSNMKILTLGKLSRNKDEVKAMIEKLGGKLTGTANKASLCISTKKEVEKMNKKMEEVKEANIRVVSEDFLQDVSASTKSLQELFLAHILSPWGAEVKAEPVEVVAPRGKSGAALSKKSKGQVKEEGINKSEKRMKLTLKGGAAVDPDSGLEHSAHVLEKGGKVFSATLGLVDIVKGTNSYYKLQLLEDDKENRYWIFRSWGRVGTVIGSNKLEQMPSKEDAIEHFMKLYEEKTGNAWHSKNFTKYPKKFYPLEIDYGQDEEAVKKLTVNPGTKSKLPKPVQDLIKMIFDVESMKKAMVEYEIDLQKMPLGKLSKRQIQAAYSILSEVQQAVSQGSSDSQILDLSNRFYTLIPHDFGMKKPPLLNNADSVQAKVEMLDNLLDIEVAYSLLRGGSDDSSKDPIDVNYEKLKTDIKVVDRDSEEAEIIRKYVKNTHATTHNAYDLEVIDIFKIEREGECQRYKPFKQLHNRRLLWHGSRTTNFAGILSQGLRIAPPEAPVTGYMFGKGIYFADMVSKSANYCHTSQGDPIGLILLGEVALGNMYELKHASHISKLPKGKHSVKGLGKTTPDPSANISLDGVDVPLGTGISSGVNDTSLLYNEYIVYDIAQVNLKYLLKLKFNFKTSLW

B1: MBP-tagged NONO (natural protein, human, UniProt Q15233 1-471, looked up)
chain: MQSNKTFNLEKQNHTPRKHHQHHHQQQHHQQQQQQPPPPPIPANGQQASSQNEGLTIDLKNFRKPGEKTFTQRSRLFVGNLPPDITEEEMRKLFEKYGKAGEVFIHKDKGFGFIRLETRTLAEIAKVELDNMPLRGKQLRVRFACHSASLTVRNLPQYVSNELLEEAFSVFGQVERAVVIVDDRGRPSGKGIVEFSGKPAARKALDRCSEGSFLLTTFPRPVTVEPMDQLDDEEGLPEKLVIKNQQFHKEREQPPRFAQPGSFEYEYAMRWKALIEMEKQQQDQVDRNIKEAREKLEMEMEAARHEHQVMLMRQDLMRRQEELRRMEELHNQEVQKRKQLELRQEEERRRREEEMRRQQEEMMRRQQEGFKGTFPDAREQEIRMGQMAMGGAMGINNRGAMPPAPVPAGTPAPPGPATMMPDGTLGLTPPTTERFGQAATMEGIGAIGGTPPAFNRAAPGAEFAPNKRRRY
As for B1, the binding result is on record as “binds”.
